Results published in patent US20120316071A1 (published 2012).
Residue numbers refer to the chain shown, from its start. In names and notes the source's numbering stands.

T1: rHuman Erythropoietin R/Fc Chimera, CF (R&D Systems Cat#963-ER) (human, UniProt P19235 25-250)
T1 construct: Bought protein; also called EPO R; EPO R/Fc; Fc part of the bought chimera not given
T1 sequence (looked up): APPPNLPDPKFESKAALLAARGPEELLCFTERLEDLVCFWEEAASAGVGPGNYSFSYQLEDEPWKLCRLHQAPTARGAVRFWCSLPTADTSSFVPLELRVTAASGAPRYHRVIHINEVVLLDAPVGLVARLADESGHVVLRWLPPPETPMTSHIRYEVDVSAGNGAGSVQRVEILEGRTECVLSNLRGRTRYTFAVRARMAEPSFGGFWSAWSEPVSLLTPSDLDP

B1: Fab VH1-46_IGHD6-6*01_IGHJ1*01 S102A/S103P/S104F/H111F & L6_IGKJ1*01 (Fab, V domains shown)
VH: QVQLVQSGAEVKKPGASVKVSCKASGYTFTSYYMHWVRQAPGQGLEWMGIINPSGGSTSYAQKFQGRVTMTRDTSTSTVYMELSSLRSEDTAVYYCAREEYAPFSAEYFQFWGQGTLVTVSS
VL: not shown
notes: Tested as a Fab made in E. coli; also called H:APFF & L:wt; APFF
B2: Fab VH1-46_IGHD6-6*01_IGHJ1*01 S102A/S103P/S104F/H111F & L6_IGKJ1*01 S28N/S30D/S31H (Fab, V domains shown)
VH: B1 VH
VL: EIVLTQSPATLSLSPGERATLSCRASQNVDHYLAWYQQKPGQAPRLLIYDASNRATGIPARFSGSGSGTDFTLTISSLEPEDFAVYYCQQRSNWPPWTFGQGTKVEIKR
notes: Tested as a Fab; also called H:APFF & L:NDH; APFF-NDH
B3: Fab VH1-46_IGHD6-6*01_IGHJ1*01 S102A/S103P/S104F/H111F/G56A & L6_IGKJ1*01 S28N/S30D/S31H (Fab, V domains shown)
VH: B1 VH with G56A
VL: B2 VL
notes: Tested as a Fab; also called H:APFF G56A & L:NDH
B4: Fab VH1-46_IGHD6-6*01_IGHJ1*01 S102A/S103P/S104F/H111F/G56A & L6_IGKJ1*01 (Fab, V domains shown)
VH: B1 VH with G56A
VL: not shown
notes: Tested as a Fab; also called APFF G56A & Parent
B5: Fab VH1-46_IGHD6-6*01_IGHJ1*01 S102A/S103P/S104F/H111F/S54A & L6_IGKJ1*01 S28N/S30D/S31H (Fab, V domains shown)
VH: B1 VH with S54A
VL: B2 VL
notes: Tested as a Fab; also called H:APFF S54A & L:NDH
B6: Fab VH1-46_IGHD6-6*01_IGHJ1*01 S102A/S103P/S104F/H111F & L6_IGKJ1*01 S28H (Fab, V domains shown)
VH: B1 VH
VL: B2 VL with N28H, D30S, H31S
notes: Tested as a Fab; also called APFF & S28H
B7: Fab VH1-46_IGHD6-6*01_IGHJ1*01 S102A/S103P/S104F/H111F & L6_IGKJ1*01 S31H (Fab, V domains shown)
VH: B1 VH
VL: B2 VL with N28S, D30S
notes: Tested as a Fab; also called APFF & S31H
B8: Fab VH1-46_IGHD6-6*01_IGHJ1*01 S102A/S103P/S104F/H111F & L6_IGKJ1*01 S30D (Fab, V domains shown)
VH: B1 VH
VL: B2 VL with N28S, H31S
notes: Tested as a Fab; also called APFF & S30D
B9: Fab VH1-46_IGHD6-6*01_IGHJ1*01 S102A/S103P/S104F/H111F & L6_IGKJ1*01 S28N (Fab, V domains shown)
VH: B1 VH
VL: B2 VL with D30S, H31S
notes: Tested as a Fab; also called APFF & S28N
B10: Fab VH1-46_IGHD6-6*01_IGHJ1*01 S102A/S103P/S104F/H111F (APFF) & L6_IGKJ1*01 (Fab, V domains shown)
VH: B1 VH
VL: not shown
notes: Fab made in E. coli: VH in plasmid A (CH1, His6 and Flag tags), VL in plasmid C (kappa CL); also called H:APFF & L:wt; APFF mutant
B11: Fab VH1-46_IGHD6-6*01_IGHJ1*01 S102A/S103P/S104F (APF) & L6_IGKJ1*01 S30W (Fab, V domains shown)
VH: B1 VH with F111H
VL: B2 VL with N28S, D30W, H31S
notes: Tested as Fab made in E. coli; The heavy chain vector (Plasmid A) adds CH1 with His and Flag tags, the kappa vector (Plasmid C) adds CL kappa; also called APF / S30W
B12: Fab VH1-46_IGHD6-6*01_IGHJ1*01 S102A/S103P/S104F (APF) & L6_IGKJ1*01 S30R (Fab, V domains shown)
VH: B1 VH with F111H
VL: B2 VL with N28S, D30R, H31S
notes: Tested as Fab made in E. coli; The heavy chain vector (Plasmid A) adds CH1 with His and Flag tags, the kappa vector (Plasmid C) adds CL kappa; also called APF / S30R
B13: Fab VH1-46_IGHD6-6*01_IGHJ1*01 S102A/S103P/S104F (APF) & L6_IGKJ1*01 S30L (Fab, V domains shown)
VH: B1 VH with F111H
VL: B2 VL with N28S, D30L, H31S
notes: Tested as Fab made in E. coli; The heavy chain vector (Plasmid A) adds CH1 with His and Flag tags, the kappa vector (Plasmid C) adds CL kappa; also called APF / S30L
B14: Fab VH1-46_IGHD6-6*01_IGHJ1*01 S102A/S103P/S104F (APF) & L6_IGKJ1*01 S30T (Fab, V domains shown)
VH: B1 VH with F111H
VL: B2 VL with N28S, D30T, H31S
notes: Tested as Fab made in E. coli; The heavy chain vector (Plasmid A) adds CH1 with His and Flag tags, the kappa vector (Plasmid C) adds CL kappa; also called APF / S30T
B15: Fab VH1-46_IGHD6-6*01_IGHJ1*01 S102A/S103P/S104F (APF) & L6_IGKJ1*01 (Fab, V domains shown)
VH: B1 VH with F111H
VL: not shown
notes: Tested as Fab made in E. coli; The heavy chain vector (Plasmid A) adds CH1 with His and Flag tags, the kappa vector (Plasmid C) adds CL kappa; also called APF / parent; H:APF & L:wt

Target: T2, Recombinant Human DLL4 (delta-like protein 4) (human, UniProt Q9NR61 27-524)
T2 construct: Bought recombinant human DLL4 (R&D Systems Cat#1506-D4/CF); also called rHuman DLL4; Delta-like 4
Experiment: ELISA, DLL4 coated on plate, Fab at 50 nM

ELISA signal | Binder
0.06 | B1
0.202 | B2
0.366 | B3
0.301 | B4
0.154 | B5

Target: T2, Recombinant Human DLL4 (delta-like …)
Experiment: ELISA, DLL4 coated on plate, Fab at 25 nM (first 25 nM row)

ELISA signal | Binder
0.02 | B1
0.03 | B6
0.03 | B7
0.03 | B8
0.04 | B9

Target: T2, Recombinant Human DLL4 (delta-like …)
Experiment: ELISA, DLL4 coated on plate, Fab at 0 nM (no-Fab background, second 0 row)

ELISA signal | Binder
0 | B1
0 | B6
0 | B7
0.01 | B8
0 | B9

Target: T2, Recombinant Human DLL4 (delta-like …)
Experiment: ELISA, DLL4 coated on plate, Fab at 75 nM

ELISA signal | Binder
0.072 | B1
0.268 | B2
0.543 | B3
0.399 | B4
0.212 | B5

Target: T2, Recombinant Human DLL4 (delta-like …)
Experiment: ELISA, DLL4 coated on plate, Fab at 0 nM (no-Fab background, first 0 row)

ELISA signal | Binder
0 | B1
0.01 | B6
0 | B7
0 | B8
0 | B9

Target: T3, Recombinant Human DLL4 (delta-like protein 4) (human, UniProt Q9NR61 27-524)
T3 construct: also called rHuman DLL4
Experiment: ECL (Meso Scale Discovery) binding assay on immobilised DLL4, Fab 10 nM

Signal [10 nM Fab] | Binder
13500 | B10

Target: T2, Recombinant Human DLL4 (delta-like …)
Experiment: ELISA, DLL4 coated on plate, Fab at 25 nM (second 25 nM row)

ELISA signal | Binder
0.03 | B1
0.03 | B6
0.03 | B7
0.03 | B8
0.05 | B9

Target: T2, Recombinant Human DLL4 (delta-like …)
Experiment: ELISA, DLL4 coated on plate, Fab at 0 nM (no-Fab background)

ELISA signal | Binder
0.006 | B1
0.002 | B2
0.002 | B3
0.002 | B4
0 | B5

Target: T2, Recombinant Human DLL4 (delta-like …)
Experiment: ELISA, DLL4 coated on plate, Fab at 200 nM

ELISA signal | Binder
0.1 | B1
0.14 | B6
0.11 | B7
0.11 | B8
0.17 | B9

Target: T2, Recombinant Human DLL4 (delta-like …)
Experiment: ELISA, DLL4 coated on plate, Fab at 100 nM

ELISA signal | Binder
0.072 | B1
0.259 | B2
0.453 | B3
0.338 | B4
0.213 | B5

Target: T4, rHuman P-Cadherin/Fc Chimera, CF (R&D Systems Cat#861-PC) (human, UniProt P22223 108-654)
T4 construct: Bought protein; Fc part of the bought chimera not given
Experiment: ECL multispot (MSD) assay; antigen spotted on plate, Fab in solution;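 note: purified Fab incubated 1 hour at 20 °C in 1% BSA TBST on antigen-coated wells, detected with TAG antibody, ECL read on Sector Imager 2400, compared to each well's blank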

ECL signal | Binder
39 ECL signal | B11
39 ECL signal | B12
260 ECL signal | B13
195 ECL signal | B14
117 ECL signal | B15

Target: T5, rHuman HGF R/c-MET/Fc Chimera, CF (R&D Systems Cat#358-MT/CF) (human, UniProt P08581 25-932)
T5 construct: Bought protein; also called HGF R/Fc; hepatocyte growth factor receptor; Fc part of the bought chimera not given
T5 sequence (P08581 25-932, change not shown): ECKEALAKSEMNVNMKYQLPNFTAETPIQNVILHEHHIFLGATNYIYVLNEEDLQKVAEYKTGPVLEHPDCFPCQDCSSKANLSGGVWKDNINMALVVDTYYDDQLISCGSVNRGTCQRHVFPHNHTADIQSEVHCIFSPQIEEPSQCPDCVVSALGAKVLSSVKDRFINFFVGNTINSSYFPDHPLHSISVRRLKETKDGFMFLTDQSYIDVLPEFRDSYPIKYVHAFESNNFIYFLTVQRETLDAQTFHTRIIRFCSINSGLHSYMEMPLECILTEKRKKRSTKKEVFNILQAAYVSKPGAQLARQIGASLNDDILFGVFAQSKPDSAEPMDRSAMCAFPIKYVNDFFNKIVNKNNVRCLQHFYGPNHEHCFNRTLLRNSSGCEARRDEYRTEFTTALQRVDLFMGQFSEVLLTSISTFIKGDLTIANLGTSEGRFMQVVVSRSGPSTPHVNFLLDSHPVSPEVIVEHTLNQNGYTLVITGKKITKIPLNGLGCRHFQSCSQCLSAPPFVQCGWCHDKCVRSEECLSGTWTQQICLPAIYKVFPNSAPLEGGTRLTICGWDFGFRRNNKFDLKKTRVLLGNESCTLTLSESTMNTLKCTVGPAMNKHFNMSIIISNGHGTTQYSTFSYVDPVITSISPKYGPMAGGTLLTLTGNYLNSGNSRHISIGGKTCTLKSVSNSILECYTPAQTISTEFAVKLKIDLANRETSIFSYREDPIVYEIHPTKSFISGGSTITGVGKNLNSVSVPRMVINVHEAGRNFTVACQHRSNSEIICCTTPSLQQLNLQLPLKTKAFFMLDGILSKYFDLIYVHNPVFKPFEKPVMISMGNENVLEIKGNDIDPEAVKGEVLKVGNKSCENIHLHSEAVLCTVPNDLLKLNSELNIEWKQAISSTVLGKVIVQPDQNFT
Experiment: as above

ECL signal | Binder
62 ECL signal | B11
108 ECL signal | B12
250 ECL signal | B13
297 ECL signal | B14
86 ECL signal | B15

Target: T6, rHuman EGF R/Fc Chimera, CF (R&D Systems Cat#344-ER) (human, UniProt P00533 25-645)
T6 construct: Bought protein; also called epidermal growth factor receptor; Fc part of the bought chimera not given
Experiment: as above

ECL signal | Binder
132 ECL signal | B11
140 ECL signal | B12
288 ECL signal | B13
274 ECL signal | B14
161 ECL signal | B15

Target: T7, rHuman CD44/Fc Chimera, CF (R&D Systems Cat#3660-CD) (human, UniProt P16070 21-220)
T7 construct: Bought protein; Fc part of the bought chimera not given
Experiment: as above

ECL signal | Binder
186 ECL signal | B11
89 ECL signal | B12
240 ECL signal | B13
229 ECL signal | B14
66 ECL signal | B15

Target: T8, rHuman IGF-1 sR, (IGF-1 sR), CF (R&D Systems Cat#391-GR) (human, UniProt P08069 31-932)
T8 construct: Bought soluble receptor; also called insulin-like growth factor-1 soluble receptor
Experiment: as above

ECL signal | Binder
157 ECL signal | B11
86 ECL signal | B12
193 ECL signal | B13
204 ECL signal | B14
217 ECL signal | B15

Target: T9, Recombinant Human DLL4 (R&D Systems Cat#1506-D4/CF) (human, UniProt Q9NR61 27-524)
T9 construct: Bought recombinant protein; also called delta-like protein 4; rHuman DLL4
Experiment: as above

ECL signal | Binder
791 ECL signal | B11
745 ECL signal | B12
1630 ECL signal | B13
1020 ECL signal | B14
803 ECL signal | B15

Target: T10, rHuman ErbB2/Fc Chimera, CF (R&D Systems Cat#1129-ER) (human, UniProt P04626 23-652)
T10 construct: Bought protein; also called human epidermal growth factor 2 receptor; Fc part of the bought chimera not given
Experiment: as above

ECL signal | Binder
73 ECL signal | B11
35 ECL signal | B12
244 ECL signal | B13
243 ECL signal | B14
61 ECL signal | B15

Target: T11, rHuman Notch-1/Fc Chimera, CF (R&D Systems Cat#3647-TK) (human, UniProt P46531 19-526)
T11 construct: Bought protein; Fc part of the bought chimera not given
Experiment: as above

ECL signal | Binder
105 ECL signal | B11
155 ECL signal | B12
296 ECL signal | B13
127 ECL signal | B14
135 ECL signal | B15

Target: T1, rHuman Erythropoietin R/Fc Chimera, CF …
Experiment: as above

ECL signal | Binder
30 ECL signal | B11
87 ECL signal | B12
259 ECL signal | B13
207 ECL signal | B14
105 ECL signal | B15

Target: T2, Recombinant Human DLL4 (delta-like …)
Experiment: ELISA, DLL4 coated on plate, Fab at 400 nM

ELISA signal | Binder
0.13 | B1
0.13 | B6
0.2 | B7
0.13 | B8
0.19 | B9

Target: T2, Recombinant Human DLL4 (delta-like …)
Experiment: ELISA, DLL4 coated on plate, Fab at 50 nM
Remark: another data set of the same source

ELISA signal | Binder
0.06 | B1
0.05 | B6
0.05 | B7
0.06 | B8
0.07 | B9

Target: T2, Recombinant Human DLL4 (delta-like …)
Experiment: ELISA, DLL4 coated on plate, Fab at 100 nM
Remark: another data set of the same source

ELISA signal | Binder
0.07 | B1
0.09 | B6
0.09 | B7
0.09 | B8
0.13 | B9
